Consider five sequences from the Immune Epitope Database (IEDB).

One assay deals with HLA-A*02:06. The experiment in a line: IEDB peptide-MHC binding, purified MHC/competitive/radioactivity; filed as Kd, often an IC50 or EC50 that approximates it; ≥ and ≤ were set here for values at or beyond the usual limits of such assays. The following applies: source organism: Vaccinia virus WR.
The target of a further assay is HLA-A*02:02. Described as above. The note with it: source organism: Vaccinia virus WR.
A further assay has as its target HLA-A*33:01. The assay is described as above. The note with it: source organism: Vaccinia virus WR.
In assay [1] the target is HLA-A*11:01. The description is as above. The following applies: source organism: Vaccinia virus WR.
The target of assay [2] is HLA-A*02:01. Described as above. The following applies: source organism: Vaccinia virus WR.
Another assay has as its target HLA-A*68:01. The assay is described as above. The following applies: source organism: Vaccinia virus WR.
The target in another assay is HLA-B*53:01. The description is as above. The note with it: source organism: Vaccinia virus WR.
The target in assay [3] is HLA-A*03:01. The assay is described as above. The note with it: source organism: Vaccinia virus WR.
The target in assay [4] is HLA-A*31:01. The assay is described as above. The note with it: source organism: Vaccinia virus WR.
The target of the next assay is HLA-A*68:02. The assay is described as above. The note with it: source organism: Vaccinia virus WR.
A further assay deals with HLA-B*54:01. The assay is described as above. The following applies: source organism: Vaccinia virus WR.
Assay [5] concerns the target HLA-B*07:02. The assay is described as above. The note with it: source organism: Vaccinia virus WR.
The next assay concerns the target HLA-B*35:01. Described as above. The following applies: source organism: Vaccinia virus WR.
For a further assay, the target named is HLA-A*02:03. The description is as above. The note with it: source organism: Vaccinia virus WR.
Assay [6] deals with HLA-B*51:01. The assay is described as above. The following applies: source organism: Vaccinia virus WR.
Assay [7] concerns the target HLA-A*26:01. The experiment in a line: IEDB peptide-MHC binding, purified MHC/direct/fluorescence; filed as Kd, often an IC50 or EC50 that approximates it; ≥ and ≤ were set here for values at or beyond the usual limits of such assays. The following applies: source organism: Influenza A virus (A/chicken/Hunan/fg/2004(H5N1)).
The target of a further assay is HLA-A*24:02. Described as above.
The target in the next assay is HLA-B*44:02. The description is as above. The note with it: source organism: Influenza A virus (A/chicken/Hunan/fg/2004(H5N1)).
The target of assay [8] is HLA-A*11:01. The assay is described as above.
The target in a further assay is HLA-B*27:05. The description is as above.
In assay [9] the target is HLA-A*02:01. The assay is described as above.
The next assay concerns the target HLA-B*08:01. Described as above. The note with it: source organism: Influenza A virus (A/chicken/Hunan/fg/2004(H5N1)).
Assay [10] has as its target HLA-A*69:01. Described as above.
The target of the next assay is HLA-B*58:01. The assay is described as above.
In assay [11] the target is HLA-A*03:01. The assay is described as above.
A further assay has as its target HLA-B*40:01. Described as above.
The target in assay [12] is HLA-A*31:01. The assay is described as above. The note with it: source organism: Influenza A virus (A/chicken/Hunan/fg/2004(H5N1)).
Assay [13] has as its target HLA-B*07:02. The assay is described as above.
Assay [14] deals with HLA-B*15:01. The assay is described as above.
The target of another assay is HLA-A*01:01. Described as above.
For assay [15], the target named is HLA-A*26:01. Kind of assay: IEDB peptide-MHC binding, purified MHC/competitive/fluorescence; filed as Kd, often an IC50 or EC50 that approximates it; ≥ and ≤ were set here for values at or beyond the usual limits of such assays. The note with it: source organism: Homo sapiens.
The target in assay [16] is HLA-B*46:01. The assay is described as above. The following applies: source organism: Homo sapiens.
The target of another assay is HLA-B*27:03. The assay is described as above. The note with it: source organism: Homo sapiens.
The target in assay [17] is HLA-A*02:01. The description is as above. The note with it: source organism: Homo sapiens.
The target of assay [18] is HLA-A*69:01. The assay is described as above. The note with it: source organism: Homo sapiens.
A further assay concerns the target HLA-B*57:01. The description is as above. The note with it: source organism: Homo sapiens.
Another assay deals with HLA-B*39:01. The description is as above. The note with it: source organism: Homo sapiens.
Assay [19] deals with HLA-B*15:01. Described as above. The note with it: source organism: Homo sapiens.
Assay [20] concerns the target HLA-B*51:01. Described as above. The following applies: source organism: Homo sapiens.
Assay [21] concerns the target HLA-B*46:01. The experiment in a line: IEDB peptide-MHC binding, purified MHC/direct/fluorescence; filed as Kd, often an IC50 or EC50 that approximates it; ≥ and ≤ were set here for values at or beyond the usual limits of such assays. The note with it: source organism: Escherichia coli O157:H7.
Assay [22] concerns the target HLA-B*18:01. The description is as above. The note with it: source organism: Escherichia coli O157:H7.
Another assay addresses HLA-B*15:17. The experiment in a line: IEDB peptide-MHC binding, purified MHC/competitive/fluorescence; filed as Kd, often an IC50 or EC50 that approximates it; ≥ and ≤ were set here for values at or beyond the usual limits of such assays. The following applies: source organism: Homo sapiens.
Assay [23] concerns the target HLA-B*18:01. The assay is described as above. The note with it: source organism: Homo sapiens.
The mark [24] stands for this setting: source organism: Influenza A virus (A/chicken/Hunan/fg/2004(H5N1)).
[25] abbreviates: source organism: Escherichia coli O157:H7.

For the sequence CTFMIITSTK, the Kd (in general, the constant that tells how readily two partners part at equilibrium) with HLA-A*02:06 was determined as 13.5 µM; in the assay with HLA-A*02:02, 8.14 µM; with HLA-A*33:01, 1.22 µM; with HLA-A*11:01 [1] it was 1.12 µM; with HLA-A*02:01 [2] it was 1.86 µM; in the assay with HLA-A*68:01, 0.0835 µM. The Kd with HLA-B*53:01 is 1.91 µM; with HLA-A*03:01 [3], 0.459 µM; in the assay with HLA-A*31:01 [4], 0.169 µM; in the assay with HLA-A*68:02, ≥ 37.6 µM; with HLA-B*54:01, 3.26 µM; with HLA-B*07:02 [5], 3.05 µM. In addition, the Kd with HLA-B*35:01 was ≥ 64.7 µM; with HLA-A*02:03 it was 6.79 µM; in the assay with HLA-B*51:01 [6], 10.3 µM.

Consider DTVNRTHQY, for which the equilibrium dissociation constant (Kd) was 0.0055 µM with HLA-A*26:01 [7]; ≥ 20 µM in the assay with HLA-A*24:02 (setting [24]); ≥ 20 µM with HLA-B*44:02; ≥ 20 µM in the assay with HLA-A*11:01 [8] (setting [24]); ≥ 20 µM with HLA-B*27:05 (setting [24]); ≥ 20 µM with HLA-A*02:01 [9] (setting [24]). The Kd in the assay with HLA-B*08:01, in the assay with HLA-A*69:01 [10] (setting [24]), with HLA-B*58:01 (setting [24]), in the assay with HLA-A*03:01 [11] (setting [24]), with HLA-B*40:01 (setting [24]) and with HLA-A*31:01 [12] was ≥ 20 µM throughout. In addition, the dissociation constant (Kd) with HLA-B*07:02 [13] (setting [24]) and in the assay with HLA-B*15:01 [14] (setting [24]) was ≥ 20 µM each time.

As for GTEYRLTLY, the Kd was 0.0008 µM in the assay with HLA-A*01:01 (source organism: Canis lupus familiaris); ≥ 20 µM in the assay with HLA-A*26:01 [15]; ≥ 20 µM with HLA-B*46:01 [16]; ≥ 20 µM with HLA-B*27:03; ≥ 20 µM with HLA-A*02:01 [17]; ≥ 20 µM in the assay with HLA-A*69:01 [18]. For the same sequence, the Kd with HLA-B*57:01, with HLA-B*39:01, in the assay with HLA-B*15:01 [19] and with HLA-B*51:01 [20] was ≥ 20 µM in each case.

For QMRVRYYGL, the Kd with HLA-A*24:02 (setting [25]), with HLA-B*46:01 [21], with HLA-B*18:01 [22], with HLA-A*11:01 [8] (setting [25]), with HLA-B*27:05 (setting [25]) and with HLA-A*02:01 [9] (setting [25]) was ≥ 20 µM each time. Further, the Kd with HLA-A*69:01 [10] (setting [25]), in the assay with HLA-A*01:01 (setting [25]), in the assay with HLA-B*58:01 (setting [25]), with HLA-A*03:01 [11] (setting [25]), with HLA-B*40:01 (setting [25]) and with HLA-B*07:02 [13] (setting [25]) was ≥ 20 µM each time. Moreover, the Kd in the assay with HLA-B*15:01 [14] (setting [25]) was ≥ 20 µM.

Consider RTDNGGWAH, for which the Kd with HLA-A*01:01 (source organism: Homo sapiens) was 0.0631 µM; with HLA-A*26:01 [15], ≥ 20 µM; in the assay with HLA-B*15:17, ≥ 20 µM; with HLA-B*46:01 [16], ≥ 20 µM; with HLA-B*18:01 [23], ≥ 20 µM; with HLA-B*27:03 it was ≥ 20 µM. Moreover, the Kd with HLA-A*02:01 [17], with HLA-A*69:01 [18], with HLA-B*57:01, with HLA-B*39:01, with HLA-B*15:01 [19] and with HLA-B*51:01 [20] was ≥ 20 µM in each case.
